In a protein production outcome set (Wang et al. 2014):

test: label from the status in PepcDB records
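Note: failed if final PepcDB status was selected cloned or expressed and not failed if soluble or beyond.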

Row | Sequence | protein production
1 | MEEVLPNVYLIDTLKYVEPGVISAYAVVHERAAIIDPGTAKGAEIILDEIDRSWNVEYICPTHIHIDHGGGAARLAKALDAKIIVHPRGVKHVVNPEKLWEASKAVLGEVAEIYGKPESIDESKVIAVEDEQEFDLGGERLKVFHAPGHAPHMLVYYLTNSKVLFPADAVGMCFGGVVFPLTPPPFDADAALKTLKRLKGLKVDYVAFTHYGVVEGDWPIAKSYEKVKSWLEIAKEVANANGTVEEFVGRLRKEDEDVEKLFNVLGSKPVALSFIYTSATGMLDAARRMIE | failed
2 | MEFLGSLLTFLIDIVGSFGYFGILLIVGLEYACFPLPSEVVLTFFGLSASQGEFSLIGVIIFSIIGGLLGSLICYAIGYYGGVPLQEWLGRKFPSSQKSMLALNKWFKKYGKPAVLLARIVPLTRTYVSLLAGAEKFSLKYFILYSSLGISIWNIFLVSLGYFIGDNLPLINSIMEKYTFVTLAILIIAVIIFIYLKFFKKEKNTSK | failed
3 | MEFLSLVIVVVAAFMTPIIVHRFNINFLPVVVAEILMGIVIGHSFLNLVERDAFLNILSTLGFIFLMFLSGLEIDFNAFKKDSRPRQGEDKHEKDVPGHLKLALTVFAFIMMISVVLAFAFKWLGLVNDVLLMVIIISTISLGVVVPTLKEMNIMRTTIGQFILLVAVLADLFTMILLTVYGAIYGEGGSTIWLTGILVVFTVVFYVIGVLFKRMSFLQKLMDGTTQIGIRAVFALIILLVALAEGVGAEYILGAFLAGVVVSLLKPNEEMVEKLDSFGYGFFIPIFFIMVGVDLDIPSLIKEPSLLLIIPVLIFSFIISKLIPVFYIRRWFDTKTTIASAFLLTSTLSLVIAAAKIAEKLKAISPETSGILILSAVITCVFVPVIFKKMFPIPNEVGRRIEVSMIGKNQLTIPIAQNLTSQLYDISLYYRKDLSDSRKLSDDITMIEIADYEEDLLERLGLFERDIVVCSTNDDHINKSVALMAKKHGVKRVICRLESTNEDPTLKHQGIEVFSNYLSNKILLKSLIETPNMLNLLSNVETSLYEIQMLNYQYENIQLRNFPFGGDIIFVRIIRDNDSIVPHGDTQLRYKDRLIVTGTKEYVDELKQELEFYY | failed
4 | MEFNQFGQPIGHAIQQPIPGKFKAQSLIGNDVNLVLIEQDRVALKNVEQLWDCIKTEPDERCWTYLPYEAPETFRQLEYNLKRNFGFEPSFHYWIMVEGQAVGWIALMNLREQHAAVEIGNVYFSHRLKQTAAATEVIYLLLNHCFEQGLRRIEWKCDDLNGPSKRAALRFGFVYEGLFRQDRVSKGRNRDTTWFSIIDSEWASLKTAYLQWLNPDNFNHAGKQKKRLEDFIVT | failed
5 | MEFQLWGAKIVIEPKPDLRYLYLEITNRCNLKCEMCFKQYWEDKEGDMDWDLFLKILDDAKEFPELKMIYFGGIGEPSVHPRFMDMVREVKRRGFRLGMSTNGVLLEDKILEEFVKLGVDVVYFSMDAIPTPSNIVTLGHITSKVVESRIKKLVELKKRYKTEKPTIGVEVVATKENYKQLPEMAIYLRNLGVDSMLISNLIPMTKEHSKAIVYDGSVDMTPIVNELHQIAEGGPFMRIAEFKLRTNRYCDFIENNVTVVRWDGEVFPCYRFLHTYPEVIFGREKKVIAHSFGNVKEKSLKDIWMSEEYVRFRFLVKASAYPSCIDCPLNTSCSFALDTTQDCWGTSPSCGDCLWSRGIVLCPIPFEYMGKFL | failed
6 | MEFQSTVVATVDCQKQVRSWRLLRSFIQLLIPTCNCTLVQELEQDNTNLRGKKLYNDIKSRTSSFRSSSSLSSSTVTGTIFGYRKGKINFCIQTPRKSTNLDLLLELAVPTTVLAREMREGALRIVLERNNEKQDDDSFLSKPFWNMYCNGKRVGYARKRSPSQDDMTALTALSKVVVGAGVVTGKELGRFDDELMYLRASFRRVNGSKESESFHLIDPAGNIGQELSIFIVPSSV | failed
7 | MEFSLIADTVTVCTAKQGIAFGKSLLQRLDLANHISFADSVVDHQSPGGGIVQASAIIFPVDAIAPPPVRSSSYKTIRRIRKKRRTRRVSFGGDGDDAGDFGRFLLEGDFGGSDGPFGFGGGGNDGGGKGWNYGGGGGGFGRDNWDGSSFSSWSDPAMEFVYEVICWIALSNCVHFAFKRIVRIVTDGEREKLNIALSPVC | failed
8 | MEGLESVYAQAMYGMTRESKIMEHQGSDLIWGGNELMARELCSSSSYHHQLINPNLSSCFMSDLGVLGEIQQQQHVGNRASSIDPSSLDCLLSATSNSNNTSTEDDEGISVLFSDCQTLWSFGGVSSAESENREITTETTTTIKPKPLKRNRGGDGGTTETTTTTTKPKSLKRNRGDETGSHFSLVHPQDDSEKGGFKLIYDENQSKSKKPRTEKERGGSSNISFQHSTCLSDNVEPDAEAIAQMKEMIYRAAAFRPVNFGLEIVEKPKRKNVKISTDPQTVAARQRRERISEKIRVLQTLVPGGTKMDTASMLDEAANYLKFLRAQVKALENLRPKLDQTNLSFSSAPTSFPLFHPSFLPLQNPNQIHHPEC | failed
9 | MEHIEIRVSATGSMSSFHALCSFHQWPINVACSCWLSHCYRIYSLYPPQLVSCSDRLSTSGNTNAGAEFVTE | failed
10 | MEHSNLRKKHNYKFTISTLTLSCLMAFNAQAAVDCSPLEAWDAGKVYNGGEEVKQGTNAYKAKYWTQNNDPATAGEWGAWQDLGVCSGEVPNEAPTVDLTSPSATEQLTTGDLVTLTASAADSDGNIVRVDFSVDGVVISSVTASPYSTTWTALEGNHTISAQSYDDKGAQSTVSSVAINVTNTPTDNIAPTATLSLSATNVELGSVVTLTADAVDSDGTIDKVDFYIDNTLVGTAATAPYTLQYTTTAVGSLSVYAKATDNLGATANSASTNLTVTSSLPVADNCRPDGLYQTEGVTVPYCTIYDKEGREKMGADHPRRVIGYFTSWRDGGDEQNSYLVKDIPWEQLTHINYAFVSIGSDGKVNVGDVTDPNNAATGKEWAGVEIDPALGFKGHFGALATAKAKHGVKTLISIGGWAETGGHFGADGNRVADGGFYTMTTNADGSINHAAIEKFAVSAVEMMRKYKFDGLDIDYEYPTSMAGAGNPDDKEFMEPRRQYLWASYQVLMKTLREKLDVASAQDDIHYMLTIAAPSSGYLLRGMETFDVTQYLDYVNIMSYDLHGAWNDHVGHNAALYDTGKDSELAQWNVYGTEAYGGIGYLNTDWAYHYFRGSMPAGRINIGVPYYTRGWQGVTGGENGLWGRAPLPDQAKCEPGTGEGEKNNCGYGALGIDNMWHDKNSYGQEMGAGSNPMWHAKNLQEGIFGSYANIYGLDPANDPADQLVGTYTRHYDSVAVAPWLWNAEKKVFLSTEDKDSINVKADYVIDQEIGGIMFWELAGDYSCYVLDSNGNRTSVDATEAACQTGNGEYHMGNTMTKAIYEKFKSATPYGNTVATGAIPTETVDIAVNVGGFKVGDQNYPINPKVTFTNNTGQDIPGGTEFQFDIPVSAPDNAKDQSGGGLQVIASGHTRPNNIGGLDGTMHRVAFTLPAWKALPAGGVYELDMVYYLPISGPANYTVNINNVDYAFKFEQPDLPLADLSSGGNNGGNGGTPDAGCDATGLVTYPDLPQKDWAGNPSHANTGDQVVHNNVIYQANWWTAAEPGSDGSWTKVCNL | failed
11 | MEIEQQQPLPSERGLSPVARRALIGAITGCFVLGGVLMLLPPAGREPAAPPAPAAGPMAGPVAQAKAAVGAGVPVALPALAALVTDHETHLRAHPRDARSWAVLGAAYVAQGKGTADAAYFPKAEEALRTSLNVAPRRNAEALGALAALANARGDYREAKQWGEAAVKMAPKQWPAYAQLIDAYDGLGDYKATGKTLDKLLGLRAGPAAAARAAQVYRARGWREDAAAAIADATARAGSPAEQAVYWQQAGELAWERGEPEQALRYFETALRTDPDRHAALAGQGRALAALGRTSDAVNAYRAALAKQPLAAYAVELGELYESQGLGGAAQVQYYLVRERVRQDAAGGVNNRLVVGQFEADHGDAEVAVRELREEWKRQPSIRVADALGWALHRAGQDQEALGFATKAMDKEHGGGVRSALYAYHRGEIERALDQLAPARRHLAEALRINPHFSPWFAPMAKETLAELGEPPAEGLPGDEEVEAAEAEAAEAAEAAQTPEAAESVDPAQTEQVPPPGASTPVPQEPEAR | failed
12 | MEIEVKFRVNFEDIKRKIEGLGAKFFGIEEQEDVYFELPSPKLLRVRKINNTGKSYITYKEILDKRNEEFYELEFEVQDPEGAIELFKRLGFKVQGVVKKRRWIYKLNNVTFELNRVEKAGDFLDIEVITSNPEEGKKIIWDVARRLGLKEEDVEPKLYIELING | not failed
13 | MEIFEDVVRCGGFRAAALGRGVSSSAISQSISVLEEALGIRLLNRTTRSVAPTEAGEQLLERLRPALYEIRTAVDDLNQLRERPSGTVRINAPGPAADHVLCPLTFEFMKIYPDVNVEIVSDAAIIDIVEQGFDAGVRFGNQLAQDMIAMPLGPALRYAIVASPDYLRKRGRPHSPRDLLQHDCIRRRFPGGTMVTWKFARDGDEVEITPKGRLTLSSAHQELQAALAGSGIAHLFEDYVRDDVEQGRLVELLCDWKQKLPSWYLYYPSRRHTSAAMRAFLEYIRNQRQHPDRR | failed
14 | MEIFELILLMLSAVFLSNVLSRFLPSIAVPLIQVLLGIILAIPLGDHTMDINPELFLLLFMAPILFNDGARTDKKSLWKNRKAILSLSIGLVFVTVGVLGAFIHYLIPAIPFAAAFALAAALAPTDAVAVGALAEKVRVPHKIMHILEGESLINDASGLVSFQFAVLALVTGTFSFMSAGTSFLLLSLGGIALGVVLSLLKIMLMRGLRQLGIENMTSFMLMEILLPFLIFMVAENIGVNGILAVVSGGMVHSFSYKRINPEMAQLNLLSKNTWSVIIFSLNGLVFVLLGTQLPQIMTAIWEDTGIHKSMLFLYIFGITFLLLALRFLWILFFRNYEENPHADLVSRLKNTFLYTVAGVRGTITLVSALSLPFVLGQGNAFPERDLLIFIAAGVIITTLLLANFTLPLFAAKKDVVVADHTTAIALLRDVVGQLQRYKTDENEVEMNNVLKMYNGRIFSLMEHKEVSATEKELRRLTQEWQLENTRRLVFERKIDTGVGLSLMMRLGKRLYVQTRAQKYRARMRYRQLLSHSIRDFRIVPLSFEERRKERAKLQTENNQFVVQKLNELDKNEFNPEVISLYLMNFERALGSGKHKKETDNEELQTTIDLASQIERETIQHYFEKGTITRKEMKVYRDNLLAIEASFQLEF | failed
15 | MEIFILIGLIVLNGLFAMSEIAIVTARKSRLTALAHAGSSTAKAALKLAEDPTQFLSTVQIGITSIGILNGIFGESILAEPLSLWLQTFGLSPDVTNIFSTVLVVIIVTYVSIVIGELVPKRIGQVSAESIACIMAKPMVFLAIATKPFVWMLSGSTHALMRLMGFSHRLDDNVTQEDIQAMLQEGSSAGVIEHNEHAMVKNVFRLDERTISSLMVPRSDIVFLDLNLPLDANLRTVMQSPHSRFPVCRNNVDDMVGIISAKQLLSESIAGERLELVDLVKNCNFVPNSLSGMELLEHFRTTGSQMVFVVDEYGDLKGLVTLQDMMDALTGEFFQEDVNDQMVIKREDGSLLLDGLIPIFDLKDALGIKQLPNEEDGRYQTLNGFLMYELGKIPQTTDIVEVAGWRLEIMDMDGKRVDKVLAQKLPDAEDSEESIFVDL | failed
16 | MEIGIIGTGNIGGTLARKLIAAGHQVRVANSKGIHGVQSFADEIGATAVDVYGAVKGADAIILSIPLPALASLPNGFFDDLPETVPLIDTSNYYPGLRDPLIPEIDDGMTESVWVSQQLSHPVIKAFNNILAWSLAELGTPKGSASRLAIAVAGDNATLKQIVMNLVDDTGFDAIDAGSLEESWRQQPSTPAYCCDYDAETMKKGLTAAVRGEAASKRDRLPELFGKLGANPTHEDIVAMNRSLNPLEHHHHHH | not failed
17 | MEIGVVGKPNVGKSTFFSAATLVDVEIANYPFTTIEANVGVTYAITDHPCKELGCSPNPQNYEYRNGLALIPVKMVDVAGLVPGAHEGRGLGNKFLDDLRMASALIHVVDATGKTDPEGQPTDYHDPVEDIEFLEREIDYWIYGILSKGWDKFAKRIKLQKIKLESAIAEHLSGIGVNENDVWEAMHKLNLPEDPTKWSQDDLLAFASEIRRVNKPMVIAANKADAASDEQIKRLVREEEKRGYIVIPTSAAAELTLRKAAKAGFIEYIPGASEFKVLRDMSEKQKRALMVIKEKVLDRFGSTGVQEVINRVVFDLLKLIPVYPVHDENKLTDQFGNVLPHVFLMKKGSTPRDLAFKVHTDLGKGFLYAINARTKRRVGEDYELQFNDIVKIVSVTR | not failed
